Target: AcHNL, hydroxynitrile lyase from Acidobacterium capsulatum ATCC 51196 (Acidobacterium capsulatum ATCC 51196)
Experiment: SEC

- stoichiometry N: 4
Substance: AcHNL, hydroxynitrile lyase from Acidobacterium capsulatum ATCC 51196 (enzyme)
